The record followed here is the Human Domainome abundance scans (Beltran et al. 2025).

To fix the notation:
B1: POU domain, class 3, transcription factor 3, residues 408 to 463; numbered along this chain, P20264 (parent)
chain: KKRTSIEVSVKGALESHFLKCPKPSAQEITNLADSLQLEKEVVRVWFCNRRQKEKR

± gives the uncertainty stated by the source.

Variants of B1 are the subject of this data set. Briefly: abundance fitness (aPCA) (normalised: wild type 0, dead -1); higher = more abundant; growth selection in yeast, the domain comes from the species named. The following applies: Homo sapiens.
Consider KKRTSIEVSVKGALESHFLKCPKPSAQEITNLADSLQLEKEIVRVWFCNRRQKEKR [V42I], for which the abundance fitness is -0.107 ± 0.11.

Consider KKRTSIEVSVKGALESHFLKCPKPSAQEITNLADSLQLEKEQVRVWFCNRRQKEKR [V42Q], for which the abundance fitness was -0.016 ± 0.12.

For KKRTSIEVSVKGALESHFLKCPKPSAQEITNLADSLQLEKENVRVWFCNRRQKEKR [V42N], the abundance fitness is -0.586 ± 0.25.

For the variant KKRTSIEVSVKGALESHFLKCPKPSAQEITNLADSLQLEKEEVRVWFCNRRQKEKR [V42E], the abundance fitness was found to be 0.032 ± 0.09.

For the variant KKRTSIEVSVKGALESHFLKCPKPSAQEITNLADSLQLEKEMVRVWFCNRRQKEKR [V42M], the abundance fitness turned out to be 0.084 ± 0.14.

For KKRTSIEVSVKGALESHFLKCPKPSAQEITNLADSLQLEKEHVRVWFCNRRQKEKR [V42H], the abundance fitness was -0.34 ± 0.18.

For the variant KKRTSIEVSVKGALESHFLKCPKPSAQEITNLADSLQLEKEFVRVWFCNRRQKEKR [V42F], the abundance fitness is -0.056 ± 0.13.

On to KKRTSIEVSVKGALESHFLKCPKPSAQEITNLADSLQLEKERVRVWFCNRRQKEKR [V42R], for which the abundance fitness was -0.224 ± 0.065.

Take KKRTSIEVSVKGALESHFLKCPKPSAQEITNLADSLQLEKEWVRVWFCNRRQKEKR [V42W]: the abundance fitness is -0.108 ± 0.091.

For the variant KKRTSIEVSVKGALESHFLKCPKPSAQEITNLADSLQLEKEKVRVWFCNRRQKEKR [V42K], the abundance fitness is -0.333 ± 0.14.

Regarding KKRTSIEVSVKGALESHFLKCPKPSAQEITNLADSLQLEKECVRVWFCNRRQKEKR [V42C], the abundance fitness was -0.172 ± 0.14.

Turning to KKRTSIEVSVKGALESHFLKCPKPSAQEITNLADSLQLEKEPVRVWFCNRRQKEKR [V42P], the abundance fitness was -0.556 ± 0.13.

Turning to KKRTSIEVSVKGALESHFLKCPKPSAQEITNLADSLQLEKELVRVWFCNRRQKEKR [V42L], the abundance fitness was -0.091 ± 0.067.

With KKRTSIEVSVKGALESHFLKCPKPSAQEITNLADSLQLEKEYVRVWFCNRRQKEKR [V42Y], the abundance fitness was -0.02 ± 0.18.

KKRTSIEVSVKGALESHFLKCPKPSAQEITNLADSLQLEKEDVRVWFCNRRQKEKR [V42D]: the abundance fitness is -0.014 ± 0.19.

Regarding KKRTSIEVSVKGALESHFLKCPKPSAQEITNLADSLQLEKESVRVWFCNRRQKEKR [V42S], the abundance fitness is -0.094 ± 0.087.

Consider KKRTSIEVSVKGALESHFLKCPKPSAQEITNLADSLQLEKEGVRVWFCNRRQKEKR [V42G], for which the abundance fitness was -0.339 ± 0.059.

Take KKRTSIEVSVKGALESHFLKCPKPSAQEITNLADSLQLEKEAVRVWFCNRRQKEKR [V42A]: the abundance fitness was 0.003 ± 0.076.

Turning to KKRTSIEVSVKGALESHFLKCPKPSAQEITNLADSLQLEKEVVREWFCNRRQKEKR [V45E], the abundance fitness came to 0.034 ± 0.08.

On to KKRTSIEVSVKGALESHFLKCPKPSAQEITNLADSLQLEKEVVRGWFCNRRQKEKR [V45G], for which the abundance fitness is -0.058 ± 0.063.

Consider KKRTSIEVSVKGALESHFLKCPKPSAQEITNLADSLQLEKEVVRCWFCNRRQKEKR [V45C], for which the abundance fitness is -0.177 ± 0.09.

For the variant KKRTSIEVSVKGALESHFLKCPKPSAQEITNLADSLQLEKEVVRKWFCNRRQKEKR [V45K], the abundance fitness is -0.024 ± 0.096.

With KKRTSIEVSVKGALESHFLKCPKPSAQEITNLADSLQLEKEVVRLWFCNRRQKEKR [V45L], the abundance fitness was -0.042 ± 0.074.

On to KKRTSIEVSVKGALESHFLKCPKPSAQEITNLADSLQLEKEVVRHWFCNRRQKEKR [V45H], for which the abundance fitness was 0.103 ± 0.11.

On to KKRTSIEVSVKGALESHFLKCPKPSAQEITNLADSLQLEKEVVRDWFCNRRQKEKR [V45D], for which the abundance fitness is 0.098 ± 0.15.

As to KKRTSIEVSVKGALESHFLKCPKPSAQEITNLADSLQLEKEVVRFWFCNRRQKEKR [V45F], the abundance fitness was -0.211 ± 0.11.

KKRTSIEVSVKGALESHFLKCPKPSAQEITNLADSLQLEKEVVVVWFCNRRQKEKR [R44V]: the abundance fitness was -0.224 ± 0.37.

Regarding KKRTSIEVSVKGALESHFLKCPKPSAQEITNLADSLQLEKEVVWVWFCNRRQKEKR [R44W], the abundance fitness is -0.377 ± 0.43.

As to KKRTSIEVSVKGALESHFLKCPKPSAQEITNLADSLQLEKEVVSVWFCNRRQKEKR [R44S], the abundance fitness is -0.55 ± 0.35.

For KKRTSIEVSVKGALESHFLKCPKPSAQEITNLADSLQLEKEVVGVWFCNRRQKEKR [R44G], the abundance fitness is -0.165 ± 0.49.

For the variant KKRTSIEVSVKGALESHFLKCPKPSAQEITNLADSLQLEKEVVEVWFCNRRQKEKR [R44E], the abundance fitness worked out at 0.213 ± 0.29.

Consider KKRTSIEVSVKGALESHFLKCPKPSAQEITNLADSLQLESEVVRVWFCNRRQKEKR [K40S], for which the abundance fitness was found to be 0.016 ± 0.084.

Turning to KKRTSIEVSVKGALESHFLKCPKPSAQEITNLADSLQLEHEVVRVWFCNRRQKEKR [K40H], the abundance fitness is -0.136 ± 0.24.

Consider KKRTSIEVSVKGALESHFLKCPKPSAQEITNLADSLQLEGEVVRVWFCNRRQKEKR [K40G], for which the abundance fitness was -0.056 ± 0.07.

For the variant KKRTSIEVSVKGALESHFLKCPKPSAQEITNLADSLQLETEVVRVWFCNRRQKEKR [K40T], the abundance fitness was -0.076 ± 0.12.

In the case of KKRTSIEVSVKGALESHFLKCPKPSAQEITNLADSLQLEREVVRVWFCNRRQKEKR [K40R], the abundance fitness was -0.06 ± 0.071.

Regarding KKRTSIEVSVKGALESHFLKCPKPSAQEITNLADSLQLENEVVRVWFCNRRQKEKR [K40N], the abundance fitness is -0.118 ± 0.18.

Regarding KKRTSIEVSVKGALESHFLKCPKPSAQEITNLADSLQLEWEVVRVWFCNRRQKEKR [K40W], the abundance fitness was -0.073 ± 0.089.

In the case of KKRTSIEVSVKGALESHFLKCPKPSAQEITNLADSLQLECEVVRVWFCNRRQKEKR [K40C], the abundance fitness is -0.038 ± 0.1.

Consider KKRTSIEVSVKGALESHFLKCPKPSAQEITNLADSLQLEQEVVRVWFCNRRQKEKR [K40Q], for which the abundance fitness came to 0.122 ± 0.14.

Take KKRTSIEVSVKGALESHFLKCPKPSAQEITNLADSLQLEEEVVRVWFCNRRQKEKR [K40E]: the abundance fitness amounted to 0.077 ± 0.11.

As to KKRTSIEVSVKGALESHFLKCPKPSAQEITNLADSLQLELEVVRVWFCNRRQKEKR [K40L], the abundance fitness is -0.103 ± 0.092.

For the variant KKRTSIEVSVKGALESHFLKCPKPSAQEITNLADSLQLEDEVVRVWFCNRRQKEKR [K40D], the abundance fitness is -0.028 ± 0.16.

On to KKRTSIEVSVKGALESHFLKCPKPSAQEITNLADSLQLEMEVVRVWFCNRRQKEKR [K40M], for which the abundance fitness is -0.336 ± 0.16.

On to KKRTSIEVSVKGALESHFLKCPKPSAQEITNLADSLQLEIEVVRVWFCNRRQKEKR [K40I], for which the abundance fitness is 0.048 ± 0.16.

As to KKRTSIEVSVKGALESHFLKCPKPSAQEITNLADSLQLDKEVVRVWFCNRRQKEKR [E39D], the abundance fitness came out at 0.124 ± 0.12.

As for KKRTSIEVSVKGALESHFLKCPKPSAQEITNLADSLQLWKEVVRVWFCNRRQKEKR [E39W], the abundance fitness is -0.89 ± 0.12.
